Reference: patent EP4722253A1 (dated 2026)

Columns and labels:
FcγRIIa = target: T1, FcγRIIa (UniProt P12318 34-217); assay: BLI (Octet HTX), antibody on FAB2G biosensor, FcγRIIa in solution
T1 sequence (looked up): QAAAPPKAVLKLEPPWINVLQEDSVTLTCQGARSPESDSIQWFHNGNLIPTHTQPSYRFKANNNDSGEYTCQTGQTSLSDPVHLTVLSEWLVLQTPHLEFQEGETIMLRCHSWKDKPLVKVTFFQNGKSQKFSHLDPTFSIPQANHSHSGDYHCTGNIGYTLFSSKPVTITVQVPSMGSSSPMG

FcγRIIIa = target: T2, FcγRIIIa (UniProt P08637 17-208); assay: BLI (Octet HTX), antibody on FAB2G biosensor, FcγRIIIa in solution
T2 construct: also called FcyRIIIa

FcRn = target: T3, FcRn (UniProt P55899 24-297); assay: BLI (Octet HTX), antibody on FAB2G biosensor, FcRn in solution, pH 6.0
T3 construct: also called neonatal Fc receptor

[1] = target: T4, C1q, complement component 1q (UniProt P02745 23-245; P02746 28-253; P02747 29-245); assay: BLI (Octet HTX), antibody on FAB2G biosensor, C1q in solution
T4 construct: also called Clq
T4 sequence (P02745 23-245 limits assumed, chain 1 of 3): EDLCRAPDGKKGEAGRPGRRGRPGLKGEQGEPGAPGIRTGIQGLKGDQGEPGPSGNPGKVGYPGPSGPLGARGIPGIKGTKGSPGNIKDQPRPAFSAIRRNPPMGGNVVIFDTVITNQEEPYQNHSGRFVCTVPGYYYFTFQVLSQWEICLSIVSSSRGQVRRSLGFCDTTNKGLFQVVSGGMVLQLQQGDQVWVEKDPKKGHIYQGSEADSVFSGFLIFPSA
T4 sequence (P02746 28-253 limits assumed, chain 2 of 3): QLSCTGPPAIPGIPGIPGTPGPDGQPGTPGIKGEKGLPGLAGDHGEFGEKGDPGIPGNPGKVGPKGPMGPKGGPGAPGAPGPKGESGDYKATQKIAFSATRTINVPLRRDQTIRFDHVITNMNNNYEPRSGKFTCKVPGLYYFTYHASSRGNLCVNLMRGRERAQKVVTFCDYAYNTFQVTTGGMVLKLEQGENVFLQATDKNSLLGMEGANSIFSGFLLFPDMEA
T4 sequence (P02747 29-245 limits assumed, chain 3 of 3): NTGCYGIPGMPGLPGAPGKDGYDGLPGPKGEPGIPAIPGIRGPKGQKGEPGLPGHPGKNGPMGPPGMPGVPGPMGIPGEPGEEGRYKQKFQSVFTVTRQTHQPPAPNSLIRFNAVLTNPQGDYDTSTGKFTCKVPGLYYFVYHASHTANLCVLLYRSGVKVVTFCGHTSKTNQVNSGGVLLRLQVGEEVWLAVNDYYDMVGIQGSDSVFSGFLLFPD

T3 sequence (P55899 24-297 limits assumed, form in doubt): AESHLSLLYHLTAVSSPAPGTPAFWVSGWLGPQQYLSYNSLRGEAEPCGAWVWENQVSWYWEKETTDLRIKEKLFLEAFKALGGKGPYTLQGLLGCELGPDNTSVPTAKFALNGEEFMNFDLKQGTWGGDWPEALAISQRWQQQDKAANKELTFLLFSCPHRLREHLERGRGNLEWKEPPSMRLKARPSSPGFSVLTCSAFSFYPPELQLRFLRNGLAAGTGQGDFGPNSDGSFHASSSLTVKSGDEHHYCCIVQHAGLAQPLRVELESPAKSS
T2 sequence (P08637 17-208 limits assumed): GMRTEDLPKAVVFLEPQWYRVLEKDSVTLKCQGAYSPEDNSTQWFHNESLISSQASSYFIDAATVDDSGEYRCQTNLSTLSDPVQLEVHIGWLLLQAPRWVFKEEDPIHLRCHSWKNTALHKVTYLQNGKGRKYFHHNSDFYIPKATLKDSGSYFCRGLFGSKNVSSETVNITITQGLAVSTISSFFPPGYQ

B1: Q-SBL-101 (bispecific antibody, human IgG1, kappa)
heavy 1: not shown
heavy 2: EVQLVESGGGLVQPGGSLRLSCAASGYTFTNYGMNWVRQAPGKGLEWVGWINTYTGEPTYAADFKRRFTFSLDTSKSTAYLQMNSLRAEDTAVYYCAKYPHYYGSSHWYFDVWGQGTLVTVSSASTKGPSVFPLAPSSKSTSGGTAALGCLVKDYFPEPVTVSWNSGALTSGVHTFPAVLQSSGLYSLSSVVTVPSSSLGTQTYICNVNHKPSNTKVDKKVEPKSCDKTHTCPPCPAPELLGGPSVFLFPPKPKDTLMISRTPEVTCVVVDVSHEDPEVKFNWYVDGVEVHNAKTKPREEQYNSTYRVVSVLTVLHQDWLNGKEYKCKVSNKALPAPIEKTISKAKGQPREPQVCTLPPSRREMTKNQVSLWCLVKGFYPSDIAVEWESNGQPENNYKTTPPVLDSDGSFFLYSKLTVDKSRWQQGNVFSCSVMHEALHNHYTQKSLSLSPGK
light 1: not shown
light 2: not shown
notes: copies: 1 + 1 + 1 + 1
B1 showed a Kd (FcγRIIa) of 2.46 µM, a Kd (FcγRIIIa) of 0.5 µM and a Kd (FcRn) of 0.73 µM. It also gave a Kd [1] of 0.036 µM.

B2: Q-SBL-102 (bispecific antibody, human IgG1, kappa)
heavy 1: not shown
heavy 2: EVQLVESGGGLVQPGGSLRLSCAASGYTFTNYGMNWVRQAPGKGLEWVGWINTYTGEPTYAADFKRRFTFSLDTSKSTAYLQMNSLRAEDTAVYYCAKYPHYYGSSHWYFDVWGQGTLVTVSSASTKGPSVFPLAPSSKSTSGGTAALGCLVKDYFPEPVTVSWNSGALTSGVHTFPAVLQSSGLYSLSSVVTVPSSSLGTQTYICNVNHKPSNTKVDKKVEPKSCDKTHTCPPCPAPELLGGPSVFLFPPKPKDTLMISRTPEVTCVVVDVSHEDPEVKFNWYVDGVEVHNAKTKPREEQYNSTYRVVSVLTVLHQDWLNGKEYKCKVSNKALPAPIEKTISKAKGQPREPQVCTLPPSREEMTKNQVSLWCLVKGFYPSDIAVEWESNGQPENNYKTTPPVLHSDGSFFLYSKLTVDKSRWQQGNVFSCSVMHEALHNHYTQKSLSLSPGK
light 1: not shown
light 2: not shown
notes: copies: 1 + 1 + 1 + 1
B2 was tested, and the Kd (FcγRIIa) was 1.7 µM, the Kd (FcγRIIIa) was 0.42 µM and the Kd (FcRn) was 0.71 µM. The Kd [1] was 0.04 µM.

B3: Q-SBL-103 (bispecific antibody, human IgG1, kappa)
heavy 1: not shown
heavy 2: EVQLVESGGGLVQPGGSLRLSCAASGYTFTNYGMNWVRQAPGKGLEWVGWINTYTGEPTYAADFKRRFTFSLDTSKSTAYLQMNSLRAEDTAVYYCAKYPHYYGSSHWYFDVWGQGTLVTVSSASTKGPSVFPLAPSSKSTSGGTAALGCLVKDYFPEPVTVSWNSGALTSGVHTFPAVLQSSGLYSLSSVVTVPSSSLGTQTYICNVNHKPSNTKVDKKVEPKSCDKTHTCPPCPAPELLGGPSVFLFPPKPKDTLMISRTPEVTCVVVDVSHEDPEVKFNWYVDGVEVHNAKTKPREEQYNSTYRVVSVLTVLHQDWLNGKEYKCKVSNKALPAPIEKTISKAKGQPREPQVCTLPPSRERMTKNQVSLWCLVKGFYPSDIAVEWESNGQPENNYKTTPPVLDSDGSFFLYSKLTVDKSRWQQGNVFSCSVMHEALHNHYTQKSLSLSPGK
light 1: not shown
light 2: not shown
notes: copies: 1 + 1 + 1 + 1
Binder B3 has a Kd (FcγRIIa) of 1.13 µM, a Kd (FcγRIIIa) of 0.22 µM and a Kd [1] of 0.04 µM.

B4: Q-SBL-104 (bispecific antibody, human IgG1, kappa)
heavy 1: not shown
heavy 2: EVQLVESGGGLVQPGGSLRLSCAASGYTFTNYGMNWVRQAPGKGLEWVGWINTYTGEPTYAADFKRRFTFSLDTSKSTAYLQMNSLRAEDTAVYYCAKYPHYYGSSHWYFDVWGQGTLVTVSSASTKGPSVFPLAPSSKSTSGGTAALGCLVKDYFPEPVTVSWNSGALTSGVHTFPAVLQSSGLYSLSSVVTVPSSSLGTQTYICNVNHKPSNTKVDKKVEPKSCDKTHTCPPCPAPELLGGPSVFLFPPKPKDTLMISRTPEVTCVVVDVSHEDPEVKFNWYVDGVEVHNAKTKPREEQYNSTYRVVSVLTVLHQDWLNGKEYKCKVSNKALPAPIEKTISKAKGQPREPQVCTLPPSRREMTKNQVSLWCLVKGFYPSDIAVEWESNGQPENNYKTTPPVLHSDGSFFLYSKLTVDKSRWQQGNVFSCSVMHEALHNHYTQKSLSLSPGK
light 1: not shown
light 2: not shown
notes: copies: 1 + 1 + 1 + 1
In the case of B4, the Kd (FcγRIIa) is reported as 1.87 µM and the Kd (FcRn) is reported as 0.68 µM.

B5: Q-SBL-105 (bispecific antibody, human IgG1, kappa)
heavy 1: not shown
heavy 2: EVQLVESGGGLVQPGGSLRLSCAASGYTFTNYGMNWVRQAPGKGLEWVGWINTYTGEPTYAADFKRRFTFSLDTSKSTAYLQMNSLRAEDTAVYYCAKYPHYYGSSHWYFDVWGQGTLVTVSSASTKGPSVFPLAPSSKSTSGGTAALGCLVKDYFPEPVTVSWNSGALTSGVHTFPAVLQSSGLYSLSSVVTVPSSSLGTQTYICNVNHKPSNTKVDKKVEPKSCDKTHTCPPCPAPELLGGPSVFLFPPKPKDTLMISRTPEVTCVVVDVSHEDPEVKFNWYVDGVEVHNAKTKPREEQYNSTYRVVSVLTVLHQDWLNGKEYKCKVSNKALPAPIEKTISKAKGQPREPQVCTLPPSRRRMTKNQVSLWCLVKGFYPSDIAVEWESNGQPENNYKTTPPVLDSDGSFFLYSKLTVDKSRWQQGNVFSCSVMHEALHNHYTQKSLSLSPGK
light 1: not shown
light 2: not shown
notes: copies: 1 + 1 + 1 + 1
In the case of B5, the Kd (FcγRIIa) is reported as 1.91 µM, the Kd (FcγRIIIa) is reported as 0.43 µM and the Kd (FcRn) is reported as 0.71 µM.

B6: Q-SBL-106 (bispecific antibody, human IgG1, kappa)
heavy 1: not shown
heavy 2: EVQLVESGGGLVQPGGSLRLSCAASGYTFTNYGMNWVRQAPGKGLEWVGWINTYTGEPTYAADFKRRFTFSLDTSKSTAYLQMNSLRAEDTAVYYCAKYPHYYGSSHWYFDVWGQGTLVTVSSASTKGPSVFPLAPSSKSTSGGTAALGCLVKDYFPEPVTVSWNSGALTSGVHTFPAVLQSSGLYSLSSVVTVPSSSLGTQTYICNVNHKPSNTKVDKKVEPKSCDKTHTCPPCPAPELLGGPSVFLFPPKPKDTLMISRTPEVTCVVVDVSHEDPEVKFNWYVDGVEVHNAKTKPREEQYNSTYRVVSVLTVLHQDWLNGKEYKCKVSNKALPAPIEKTISKAKGQPREPQVCTLPPSRERMTKNQVSLWCLVKGFYPSDIAVEWESNGQPENNYKTTPPVLHSDGSFFLYSKLTVDKSRWQQGNVFSCSVMHEALHNHYTQKSLSLSPGK
light 1: not shown
light 2: not shown
notes: copies: 1 + 1 + 1 + 1
With B6 the Kd (FcRn) was 0.68 µM.

B7: Q-SBL-109 (bispecific antibody, human IgG1, kappa)
heavy 1: not shown
heavy 2: EVQLVESGGGLVQPGGSLRLSCAASGYTFTNYGMNWVRQAPGKGLEWVGWINTYTGEPTYAADFKRRFTFSLDTSKSTAYLQMNSLRAEDTAVYYCAKYPHYYGSSHWYFDVWGQGTLVTVSSASTKGPSVFPLAPSSKSTSGGTAALGCLVKDYFPEPVTVSWNSGALTSGVHTFPAVLQSSGLYSLSSVVTVPSSSLGTQTYICNVNHKPSNTKVDKKVEPKSCDKTHTCPPCPAPELLGGPSVFLFPPKPKDTLMISRTPEVTCVVVDVSHEDPEVKFNWYVDGVEVHNAKTKPREEQYNSTYRVVSVLTVLHQDWLNGKEYKCKVSNKALPAPIEKTISKAKGQPREPQVCTLPPSRREMTKNQVSLWCLVKGFYPSDIAVEWESNGQPENNYKTTPPVLDSDGSFFLYSKLTVDKSRWQQGNVFSCSVMHEALHNHYTQKSLSLSPGK
light 1: not shown
light 2: not shown
notes: copies: 1 + 1 + 1 + 1
In the case of B7, the Kd (FcγRIIa) is reported as 2.2 µM, the Kd (FcγRIIIa) is reported as 0.34 µM and the Kd (FcRn) is reported as 0.64 µM. It also gave a Kd [1] of 0.028 µM.

B8: Q-SBL-114 (bispecific antibody, human IgG1, kappa)
heavy 1: not shown
heavy 2: EVQLVESGGGLVQPGGSLRLSCAASGYTFTNYGMNWVRQAPGKGLEWVGWINTYTGEPTYAADFKRRFTFSLDTSKSTAYLQMNSLRAEDTAVYYCAKYPHYYGSSHWYFDVWGQGTLVTVSSASTKGPSVFPLAPSSKSTSGGTAALGCLVKDYFPEPVTVSWNSGALTSGVHTFPAVLQSSGLYSLSSVVTVPSSSLGTQTYICNVNHKPSNTKVDKKVEPKSCDKTHTCPPCPAPELLGGPSVFLFPPKPKDTLMISRTPEVTCVVVDVSHEDPEVKFNWYVDGVEVHNAKTKPREEQYNSTYRVVSVLTVLHQDWLNGKEYKCKVSNKALPAPIEKTISKAKGQPREPQVCTLPPSREEMTKNQVSLWCLVKGFYPSDIAVEWESNGQPENNYKTTPPVLHSDGSFFLYSKLTVDKSRWQQGNVFSCSVMHEALHNHYTQKSLSLSPGK
light 1: not shown
light 2: not shown
notes: copies: 1 + 1 + 1 + 1
B8 showed a Kd (FcγRIIa) of 1.86 µM, a Kd (FcγRIIIa) of 0.23 µM and a Kd [1] of 0.018 µM.

B9: Q-SBL-117 (bispecific antibody, human IgG1, kappa)
heavy 1: not shown
heavy 2: EVQLVESGGGLVQPGGSLRLSCAASGYTFTNYGMNWVRQAPGKGLEWVGWINTYTGEPTYAADFKRRFTFSLDTSKSTAYLQMNSLRAEDTAVYYCAKYPHYYGSSHWYFDVWGQGTLVTVSSASTKGPSVFPLAPSSKSTSGGTAALGCLVKDYFPEPVTVSWNSGALTSGVHTFPAVLQSSGLYSLSSVVTVPSSSLGTQTYICNVNHKPSNTKVDKKVEPKSCDKTHTCPPCPAPELLGGPSVFLFPPKPKDTLMISRTPEVTCVVVDVSHEDPEVKFNWYVDGVEVHNAKTKPREEQYNSTYRVVSVLTVLHQDWLNGKEYKCKVSNKALPAPIEKTISKAKGQPREPQVCTLPPSRKEMTKNQVSLWCLVKGFYPSDIAVEWESNGQPENNYKTTPPVLDSDGSFFLYSKLTVDKSRWQQGNVFSCSVMHEALHNHYTQKSLSLSPGK
light 1: not shown
light 2: not shown
notes: copies: 1 + 1 + 1 + 1
Binder B9 has a Kd (FcγRIIa) of 2.55 µM, a Kd (FcγRIIIa) of 0.36 µM and a Kd [1] of 0.04 µM.

B10: Q-SBL-135 (bispecific antibody, human IgG1, kappa)
heavy 1: not shown
heavy 2: EVQLVESGGGLVQPGGSLRLSCAASGYTFTNYGMNWVRQAPGKGLEWVGWINTYTGEPTYAADFKRRFTFSLDTSKSTAYLQMNSLRAEDTAVYYCAKYPHYYGSSHWYFDVWGQGTLVTVSSASTKGPSVFPLAPSSKSTSGGTAALGCLVKDYFPEPVTVSWNSGALTSGVHTFPAVLQSSGLYSLSSVVTVPSSSLGTQTYICNVNHKPSNTKVDKKVEPKSCDKTHTCPPCPAPELLGGPSVFLFPPKPKDTLMISRTPEVTCVVVDVSHEDPEVKFNWYVDGVEVHNAKTKPREEQYNSTYRVVSVLTVLHQDWLNGKEYKCKVSNKALPAPIEKTISKAKGQPREPQVCTLPPSREEMTKNQVSLWCLVKGFYPSDIAVEWESNGQPENNYKTTPPVLDSDGSFFLYSVLTVDKSRWQQGNVFSCSVMHEALHNHYTQKSLSLSPGK
light 1: not shown
light 2: not shown
notes: copies: 1 + 1 + 1 + 1
Binder B10 has a Kd (FcγRIIa) of 1.38 µM, a Kd (FcγRIIIa) of 0.3 µM and a Kd (FcRn) of 0.65 µM.

B11: Q-SBL-136 (bispecific antibody, human IgG1, kappa)
heavy 1: not shown
heavy 2: EVQLVESGGGLVQPGGSLRLSCAASGYTFTNYGMNWVRQAPGKGLEWVGWINTYTGEPTYAADFKRRFTFSLDTSKSTAYLQMNSLRAEDTAVYYCAKYPHYYGSSHWYFDVWGQGTLVTVSSASTKGPSVFPLAPSSKSTSGGTAALGCLVKDYFPEPVTVSWNSGALTSGVHTFPAVLQSSGLYSLSSVVTVPSSSLGTQTYICNVNHKPSNTKVDKKVEPKSCDKTHTCPPCPAPELLGGPSVFLFPPKPKDTLMISRTPEVTCVVVDVSHEDPEVKFNWYVDGVEVHNAKTKPREEQYNSTYRVVSVLTVLHQDWLNGKEYKCKVSNKALPAPIEKTISKAKGQPREPQVCTLPPSREEMTKNQVSLWCLVKGFYPSDIAVEWESNGQPENNYKTTPPVLDSDGSFFLYSTLTVDKSRWQQGNVFSCSVMHEALHNHYTQKSLSLSPGK
light 1: not shown
light 2: not shown
notes: copies: 1 + 1 + 1 + 1
With B11 the Kd (FcγRIIa) was 1.97 µM, the Kd (FcγRIIIa) was 0.23 µM and the Kd (FcRn) was 0.62 µM.
